Measured values: patent publication EP2871189A1 (INSTITUT PASTEUR, dated 2015)

Columns and labels:
[1] = target: T1, VHH-E9 containing the strep-tag sequence of SEQ ID NO: 13 at the C terminus; assay: ELISA assay after Friguet et al 1985 (method as in the sentence before)
T1 construct: also called Strep-tagged anti-GFAP VHH E9; anti-GFAP VHH E9

[2] = target: recombinant ectodomain of glycoprotein E2 of GB virus (GBV-B) fused to the double Strep-Tag (GB virus (GBV-B)); assay: Western blot

B1: monoclonal antibody C23.21 (antibody, V domains shown)
VH: EVQLEQSGPELVKPGASVKMSCKASGYTFTNYYMKWVKQSHGKSLEWIGDLNPNNGDTFYNQKFKGKATLTVDKSSNTAYMQLNSLTSEDSAVYYCARTGRYEENAMDYWGQGTSVTVSS
VL: ELVMTQSPASLAVSLGQRATISCRASESVDSYGKSFMHWYQLKPGQPPKLLIYRASNLESGVPARFSGSGSRTDFTLTIDPVEADDAATYYCQQNNEDPWTFGGGTKLEIK
notes: also called C23-21 mAb; anti-strep tag C23-21 mAb
- Kd [1]: 0.91 nM
- binding result [2]: binds
